Source: the supplement of paper PMC5998384

Experiments:
[1] = tested on: HeLa Kyoto; test: solubility change mitosis vs G1/S (difference of NP-40 vs SDS log2 ratios) (log2 ratio difference); higher = more soluble in mitosis
[2] = tested on: HeLa Kyoto; test: melting temperature (median over replicates), in situ; higher = more thermally stable
[3] = tested on: HeLa Kyoto; test: thermal stability score vs G1/S (z-score of summed log2 fold changes over temperatures); higher = more thermally stable than in G1/S
[4] = tested on: HeLa Kyoto; test: solubility in G1/S (NP-40 vs SDS abundance) (log2 ratio); higher = more soluble; details: cell cycle stage: G1/S
[5] = cell cycle stage: early G1 (4.5 h after nocodazole release)
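Throughout, for melting temperature (median over replicates), in situ: HeLa Kyoto cells synchronized by double thymidine or nocodazole block, proteins quantified by TMT10plex mass spectrometry, three independent biological replicates.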
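Throughout, for solubility change mitosis vs G1/S (difference of NP-40 vs SDS log2 ratios): synchronized HeLa Kyoto cells (double thymidine block for G1/S, nocodazole release for mitosis), protein amounts in NP-40 versus SDS lysates quantified by mass spectrometry, three biological replicates.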
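Throughout, for solubility in G1/S (NP-40 vs SDS abundance): HeLa Kyoto cells arrested at G1/S by double thymidine block, proteins quantified by TMT10plex mass spectrometry in mild NP-40 versus SDS extracts, three biological replicates.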
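Throughout, for thermal stability score vs G1/S (z-score of summed log2 fold changes over temperatures): synchronized HeLa Kyoto cells, proteins quantified by TMT10plex mass spectrometry, three biological replicates, mitosis taken 0.5 h after nocodazole release, G1/S directly after double thymidine block.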

Row | Sequence | solubility change mitosis (log2) [1] | melting temperature ([2]; cell cycle stage: G1/S) | melting temperature ([2]; cell cycle stage: mitosis) | thermal stability score [3, 5] | thermal stability score ([3]; cell cycle stage: mitosis) | solubility in G1/S (log2) [4]
1 | MSTGTFVVSQPLNYRGGARVEPADASGTEKAFEPATGRVIATFTCSGEKEVNLAVQNAKAAFKIWSQKSGMERCRILLEAARIIREREDEIATMECINNGKSIFEARLDIDISWQCLEYYAGLAASMAGEHIQLPGGSFGYTRREPLGVCVGIGAWNYPFQIASWKSAPALACGNAMVFKPSPFTPVSALLLAEIYSEAGVPPGLFNVVQGGAATGQFLCQHPDVAKVSFTGSVPTGMKIMEMSAKGIKPVTLELGGKSPLIIFSDCDMNNAVKGALMANFLTQGQVCCNGTRVFVQKEILDKFTEEVVKQTQRIKIGDPLLEDTRMGPLINRPHLERVLGFVKVAKEQGAKVLCGGDIYVPEDPKLKDGYYMRPCVLTNCRDDMTCVKEEIFGPVMSILSFDTEAEVLERANDTTFGLAAGVFTRDIQRAHRVVAELQAGTCFINNYNVSPVELPFGGYKKSGFGRENGRVTIEYYSQLKTVCVEMGDVESAF [ALDH9A1] | -0.0784 | 57.1 °C | 57.3 °C | 0.248 | -0.642 | 0.24
2 | MSTLYVSPHPDAFPSLRALIAARYGEAGEGPGWGGAHPRICLQPPPTSRTPFPPPRLPALEQGPGGLWVWGATAVAQLLWPAGLGGPGGSRAAVLVQQWVSYADTELIPAACGATLPALGLRSSAQDPQAVLGALGRALSPLEEWLRLHTYLAGEAPTLADLAAVTALLLPFRYVLDPPARRIWNNVTRWFVTCVRQPEFRAVLGEVVLYSGARPLSHQPGPEAPALPKTAAQLKKEAKKREKLEKFQQKQKIQQQQPPPGEKKPKPEKREKRDPGVITYDLPTPPGEKKDVSGPMPDSYSPRYVEAAWYPWWEQQGFFKPEYGRPNVSAANPRGVFMMCIPPPNVTGSLHLGHALTNAIQDSLTRWHRMRGETTLWNPGCDHAGIATQVVVEKKLWREQGLSRHQLGREAFLQEVWKWKEEKGDRIYHQLKKLGSSLDWDRACFTMDPKLSAAVTEAFVRLHEEGIIYRSTRLVNWSCTLNSAISDIEVDKKELTGRTLLSVPGYKEKVEFGVLVSFAYKVQGSDSDEEVVVATTRIETMLGDVAVAVHPKDTRYQHLKGKNVIHPFLSRSLPIVFDEFVDMDFGTGAVKITPAHDQNDYEVGQRHGLEAISIMDSRGALINVPPPFLGLPRFEARKAVLVALKERGLFRGIEDNPMVVPLCNRSKDVVEPLLRPQWYVRCGEMAQAASAAVTRGDLRILPEAHQRTWHAWMDNIREWCISRQLWWGHRIPAYFVTVSDPAVPPGEDPDGRYWVSGRNEAEAREKAAKEFGVSPDKISLQQDEDVLDTWFSSGLFPLSILGWPNQSEDLSVFYPGTLLETGHDILFFWVARMVMLGLKLTGRLPFREVYLHAIVRDAHGRKMSKSLGNVIDPLDVIYGISLQGLHNQLLNSNLDPSEVEKAKEGQKADFPAGIPECGTDALRFGLCAYMSQGRDINLDVNRILGYRHFCNKLWNATKFALRGLGKGFVPSPTSQPGGHESLVDRWIRSRLTEAVRLSNQGFQAYDFPAVTTAQYSFWLYELCDVYLECLKPVLNGVDQVAAECARQTLYTCLDVGLRLLSPFMPFVTEELFQRLPRRMPQAPPSLCVTPYPEPSECSWKDPEAEAALELALSITRAVRSLRADYNLTRIRPDCFLEVADEATGALASAVSGYVQALASAGVVAVLALGAPAPQGCAVALASDRCSIHLQLQGLVDPARELGKLQAKRVEAQRQAQRLRERRAASGYPVKVPLEVQEADEAKLQQTEAELRKVDEAIALFQKML [VARS] | -0.183 | 51 °C | 50.5 °C | -0.359 | -0.482 | -0.0962
3 | MSVGFIGAGQLAFALAKGFTAAGVLAAHKIMASSPDMDLATVSALRKMGVKLTPHNKETVQHSDVLFLAVKPHIIPFILDEIGADIEDRHIVVSCAAGVTISSIEKKLSAFRPAPRVIRCMTNTPVVVREGATVYATGTHAQVEDGRLMEQLLSSVGFCTEVEEDLIDAVTGLSGSGPAYAFTALDALADGGVKMGLPRRLAVRLGAQALLGAAKMLLHSEQHPGQLKDNVSSPGGATIHALHVLESGGFRSLLINAVEASCIRTRELQSMADQEQVSPAAIKKTILDKVKLDSPAGTALSPSGHTKLLPRSLAPAGKD [PYCR1] | -0.0764 | 54.9 °C | 53.7 °C | 0.0884 | -3.11 | 0.208
4 | MSVLGEYERHCDSINSDFGSESGGCGDSSPGPSASQGPRAGGGAAEQEELHYIPIRVLGRGAFGEATLYRRTEDDSLVVWKEVDLTRLSEKERRDALNEIVILALLQHDNIIAYYNHFMDNTTLLIELEYCNGGNLYDKILRQKDKLFEEEMVVWYLFQIVSAVSCIHKAGILHRDIKTLNIFLTKANLIKLGDYGLAKKLNSEYSMAETLVGTPYYMSPELCQGVKYNFKSDIWAVGCVIFELLTLKRTFDATNPLNLCVKIVQGIRAMEVDSSQYSLELIQMVHSCLDQDPEQRPTADELLDRPLLRKRRREMEEKVTLLNAPTKRPRSSTVTEAPIAVVTSRTSEVYVWGGGKSTPQKLDVIKSGCSARQVCAGNTHFAVVTVEKELYTWVNMQGGTKLHGQLGHGDKASYRQPKHVEKLQGKAIRQVSCGDDFTVCVTDEGQLYAFGSDYYGCMGVDKVAGPEVLEPMQLNFFLSNPVEQVSCGDNHVVVLTRNKEVYSWGCGEYGRLGLDSEEDYYTPQKVDVPKALIIVAVQCGCDGTFLLTQSGKVLACGLNEFNKLGLNQCMSGIINHEAYHEVPYTTSFTLAKQLSFYKIRTIAPGKTHTAAIDERGRLLTFGCNKCGQLGVGNYKKRLGINLLGGPLGGKQVIRVSCGDEFTIAATDDNHIFAWGNGGNGRLAMTPTERPHGSDICTSWPRPIFGSLHHVPDLSCRGWHTILIVEKVLNSKTIRSNSSGLSIGTVFQSSSPGGGGGGGGGEEEDSQQESETPDPSGGFRGTMEADRGMEGLISPTEAMGNSNGASSSCPGWLRKELENAEFIPMPDSPSPLSAAFSESEKDTLPYEELQGLKVASEAPLEHKPQVEASSPRLNPAVTCAGKGTPLTPPACACSSLQVEVERLQGLVLKCLAEQQKLQQENLQIFTQLQKLNKKLEGGQQVGMHSKGTQTAKEEMEMDPKPDLDSDSWCLLGTDSCRPSL [NEK9] | -0.102 | 51 °C | 51.2 °C | 0.358 | -0.633 | -0.134
5 | MSVLLRSGLGPLCAVARAAIPFIWRGKYFSSGNEPAENPVTPMLRHLMYKIKSTGPITVAEYMKEVLTNPAKGYYVYRDMLGEKGDFITSPEISQIFGELLGIWFISEWMATGKSTAFQLVELGPGRGTLVGDILRVFTQLGSVLKNCDISVHLVEVSQKLSEIQALTLTKEKVPLERNAGSPVYMKGVTKSGIPISWYRDLHDVPKGYSFYLAHEFFDVLPVHKFQKTPQGWREVFVDIDPQVSDKLRFVLAPSATPAEAFIQHDETRDHVEVCPDAGVIIEELSQRIALTGGAALVADYGHDGTKTDTFRGFCDHKLHDVLIAPGTADLTADVDFSYLRRMAQGKVASLGPIKQHTFLKNMGIDVRLKVLLDKSNEPSVRQQLLQGYDMLMNPKKMGERFNFFALLPHQRLQGGRYQRNARQSKPFASVVAGFSELAWQ [NDUFAF7] | -0.162 | 49.2 °C | 49 °C | 0.103 | 1.08 | 0.278
6 | MSVNSEKSSSSERPEPQQKAPLVPPPPPPPPPPPPPLPDPTPPEPEEEILGSDDEEQEDPADYCKGGYHPVKIGDLFNGRYHVIRKLGWGHFSTVWLCWDMQGKRFVAMKVVKSAQHYTETALDEIKLLKCVRESDPSDPNKDMVVQLIDDFKISGMNGIHVCMVFEVLGHHLLKWIIKSNYQGLPVRCVKSIIRQVLQGLDYLHSKCKIIHTDIKPENILMCVDDAYVRRMAAEATEWQKAGAPPPSGSAVSTAPQQKPIGKISKNKKKKLKKKQKRQAELLEKRLQEIEELEREAERKIIEENITSAAPSNDQDGEYCPEVKLKTTGLEEAAEAETAKDNGEAEDQEEKEDAEKENIEKDEDDVDQELANIDPTWIESPKTNGHIENGPFSLEQQLDDEDDDEEDCPNPEEYNLDEPNAESDYTYSSSYEQFNGELPNGRHKIPESQFPEFSTSLFSGSLEPVACGSVLSEGSPLTEQEESSPSHDRSRTVSASSTGDLPKAKTRAADLLVNPLDPRNADKIRVKIADLGNACWVHKHFTEDIQTRQYRSIEVLIGAGYSTPADIWSTACMAFELATGDYLFEPHSGEDYSRDEDHIAHIIELLGSIPRHFALSGKYSREFFNRRGELRHITKLKPWSLFDVLVEKYGWPHEDAAQFTDFLIPMLEMVPEKRASAGECLRHPWLNS [SRPK2] | 0.0499 | 53.3 °C | 52.2 °C | -3.22 | -4.46 | -0.405
7 | MSVPSALMKQPPIQSTAGAVPVRNEKGEISMEKVKVKRYVSGKRPDYAPMESSDEEDEEFQFIKKAKEQEAEPEEQEEDSSSDPRLRRLQNRISEDVEERLARHRKIVEPEVVGESDSEVEGDAWRMEREDSSEEEEEEIDDEEIERRRGMMRQRAQERKNEEMEVMEVEDEGRSGEESESESEYEEYTDSEDEMEPRLKPVFIRKKDRVTVQEREAEALKQKELEQEAKRMAEERRKYTLKIVEEETKKELEENKRSLAALDALNTDDENDEEEYEAWKVRELKRIKRDREDREALEKEKAEIERMRNLTEEERRAELRANGKVITNKAVKGKYKFLQKYYHRGAFFMDEDEEVYKRDFSAPTLEDHFNKTILPKVMQVKNFGRSGRTKYTHLVDQDTTSFDSAWGQESAQNTKFFKQKAAGVRDVFERPSAKKRKTT [MFAP1] | 0.782 | 57.2 °C | 54.3 °C | -4 | -4.38 | -0.901
8 | MSVQVVSAAAAAKVPEVELKDLSPSEAESQLGLSTAAVGAMAPPAGGGDPEAPAPAAERPPVPGPGSGPAAALSPAAGKVPQASAMKRSDPHHQHQRHRDGGEALVSPDGTVTEAPRTVKKQIQFADQKQEFNKRPTKIGRRSLSRSISQSSTDSYSSAASYTDSSDDETSPRDKQQKNSKGSSDFCVKNIKQAEFGRREIEIAEQEMPALMALRKRAQGEKPLAGAKIVGCTHITAQTAVLMETLGALGAQCRWAACNIYSTLNEVAAALAESGFPVFAWKGESEDDFWWCIDRCVNVEGWQPNMILDDGGDLTHWIYKKYPNMFKKIKGIVEESVTGVHRLYQLSKAGKLCVPAMNVNDSVTKQKFDNLYCCRESILDGLKRTTDMMFGGKQVVVCGYGEVGKGCCAALKAMGSIVYVTEIDPICALQACMDGFRLVKLNEVIRQVDIVITCTGNKNVVTREHLDRMKNSCIVCNMGHSNTEIDVASLRTPELTWERVRSQVDHVIWPDGKRIVLLAEGRLLNLSCSTVPTFVLSITATTQALALIELYNAPEGRYKQDVYLLPKKMDEYVASLHLPTFDAHLTELTDEQAKYLGLNKNGPFKPNYYRY [AHCYL2] | -0.0168 | 60.1 °C | 57.5 °C | -1.59 | -3.95 | -0.105
